No end group written: not given here.
T1: peptide p6773 (human, not fully specified (residue 18))
T1 peptide: LPQPPPQAQPLLPQPQPC

T2: peptide p7564 (human, not fully specified (residue 1))
T2 construct: also called 'cleaved' peptide
T2 peptide: CPSDSSEIVLD

T3: peptide p7562 (human, not fully specified (residue 1))
T3 peptide: CDSSEIVLD

T4: peptide p7552 (human, not fully specified (residue 1))
T4 peptide: CSSEIVLD


How the values were obtained:
peptide p6773 = molecular target: T1, peptide p6773; experiment: peptide ELISA
[1] = molecular target: T5, recombinant N-terminal Huntingtin fragment recHTT610 (human, UniProt P42858 1-610); experiment: recHTT610 capture ELISA
T5 construct: range 1-610; Used as extract of transiently transfected HEK293 cells, captured by anti-V5 antibody on the plate or spiked into human serum; also called recombinant HTT610; recombinant Huntingtin; not shown: two C-terminal V5 tags
Procedure: Binding of antibodies to N-terminal fragment HTT610 was determined by a standard protein capture ELISA procedure using Maxisorb™ ELISA plates (Thermo; CatNr. 439454), coated with 50 μl of a 1:5000 rabbit anti V5 mAB (Sigma, CatNr. V8137), blocking with blocking buffer (PBS, 1% BSA, 0.1% Tween 20), capturing of recombinant Huntingtin from HEK cell extracts (100 ng/μl total protein) followed by incubation with several dilutions of mouse anti HTT sera (1:100; 1:300 and 1:900) or with mAB2166 as reference (diluted 1:2000; Millipore, Cat Nr. MAB2166) for 1 hour at RT. ELISA incubations, washing and detection procedures were performed according to standard procedures.

peptide p7564 = molecular target: T2, peptide p7564; experiment: peptide ELISA
peptide p7562 = molecular target: T3, peptide p7562; experiment: peptide ELISA
peptide p7552 = molecular target: T4, peptide p7552; experiment: peptide ELISA

T5 sequence (P42858 1-610): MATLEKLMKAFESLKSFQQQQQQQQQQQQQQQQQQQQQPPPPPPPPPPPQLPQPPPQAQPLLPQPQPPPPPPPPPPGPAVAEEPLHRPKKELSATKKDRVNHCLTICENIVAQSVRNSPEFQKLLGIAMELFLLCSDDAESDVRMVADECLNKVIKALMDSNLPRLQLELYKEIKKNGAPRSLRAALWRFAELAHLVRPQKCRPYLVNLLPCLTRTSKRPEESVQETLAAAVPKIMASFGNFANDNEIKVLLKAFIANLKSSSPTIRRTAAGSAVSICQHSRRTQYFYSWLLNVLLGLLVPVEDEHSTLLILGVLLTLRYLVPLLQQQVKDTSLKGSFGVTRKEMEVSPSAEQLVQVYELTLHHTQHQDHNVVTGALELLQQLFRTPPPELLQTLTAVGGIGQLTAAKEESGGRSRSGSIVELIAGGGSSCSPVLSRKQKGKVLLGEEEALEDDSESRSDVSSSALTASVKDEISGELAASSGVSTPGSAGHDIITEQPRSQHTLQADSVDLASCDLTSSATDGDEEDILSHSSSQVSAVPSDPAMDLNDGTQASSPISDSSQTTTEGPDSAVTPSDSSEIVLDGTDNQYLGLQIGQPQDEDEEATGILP

binding result (peptide p6773)	signal to noise ratio (reHTT610-specific signal: HEK ctrl extracts) [1]	binding result (peptide p7564)	binding result (peptide p7562)	binding result (peptide p7552)	Binder
binds	≥ 4	–	–	–	monoclonal antibody PRR13 (antibody, V domains shown, Mouse IgG2a from hybridoma, immunogen p6773; also called mAB PRR13; PPR13) VH: EVQLQQSAPELVKPGASVKMSCKASGYSFTDFYMKWVKQSHGKGLEWIGDIDPKNGDTFYNQKFKGRATLTVDKSSSTAYMQLNSLTTEDSAVYYCATYYGYTMDYWGQGTSVTVSS VL: QIVLTQSPAIMSASLGERVTMTCTASSSVTSSYLHWYQQKPGSSPKLWIYSTSNLASGVPARFSGSGSGTSYSLTISSMEAEDAATYYCHQYRRPPRTFGGGTKLEIKR
–	–	binds	binds	binds	monoclonal antibody M1D1 (antibody, V domains shown, Typed as mouse IgM; hybridoma, immunogen p7564; also called mAB M1D1) VH: EVQLVESGGGLVQPKGSLKLSCAASGFTFNTYAMNWVRQAPGKGLEWVARIRSKSNNYATYYADSVKDRFTISRDDSQSMLYLQMNNLKTEDTAMYYCVRHGEYGNPWFAYWGQGTLVTVSA VL: not shown

From US20220073650A1 (AFFIRIS, published 2022)
